Assay [1] concerns the target MASP3 in Factor D depleted human plasma (human) (UniProt P48740). The assay is described as follows: cell-based or functional assay.
The next assay concerns the target human MASP3-His (human) (UniProt P48740). The assay is described as follows: cell-based or functional assay.

Sequence of MASP3 in Factor D depleted human plasma (human) (P48740 other isoform, or with tags, fused parts or gaps): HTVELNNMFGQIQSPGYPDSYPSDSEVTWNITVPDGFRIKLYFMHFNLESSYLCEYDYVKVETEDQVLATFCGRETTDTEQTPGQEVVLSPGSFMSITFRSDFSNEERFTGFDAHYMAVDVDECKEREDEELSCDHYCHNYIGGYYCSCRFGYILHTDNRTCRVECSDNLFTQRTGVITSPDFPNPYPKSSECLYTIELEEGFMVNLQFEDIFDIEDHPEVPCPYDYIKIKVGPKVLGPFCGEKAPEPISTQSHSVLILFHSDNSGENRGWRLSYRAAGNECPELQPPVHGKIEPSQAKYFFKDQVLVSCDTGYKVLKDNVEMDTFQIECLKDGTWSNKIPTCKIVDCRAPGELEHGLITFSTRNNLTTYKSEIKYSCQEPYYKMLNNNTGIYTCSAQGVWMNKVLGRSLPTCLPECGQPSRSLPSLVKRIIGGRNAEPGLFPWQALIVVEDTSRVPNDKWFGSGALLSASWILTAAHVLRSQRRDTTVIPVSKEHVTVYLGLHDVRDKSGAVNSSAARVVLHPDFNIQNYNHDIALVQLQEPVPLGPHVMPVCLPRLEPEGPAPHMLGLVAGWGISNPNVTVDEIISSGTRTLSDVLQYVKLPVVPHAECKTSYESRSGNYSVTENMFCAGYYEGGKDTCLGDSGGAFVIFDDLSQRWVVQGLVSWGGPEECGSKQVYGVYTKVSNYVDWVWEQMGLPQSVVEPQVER
Sequence of human MASP3-His (human) (P48740 other isoform, or with tags, fused parts or gaps): as above

In assay [1], OMS906 (antibody) gave an Inhibit Hemolysis IC50 (alternative pathway, rabbit or guinea pig red blood cells) of 13 nM and an Inhibit hemolysis IC50 (alternative pathway) of 17.1 nM. In the assay with human MASP3-His (human), this substance registered an IC50 of inhibition of MASP3 enzymatic activity (cleavage of fluorescent tripeptide Boc-Val-Pro-Arg-AMC) of 200 nM.
